Source: US20150322152A1 (INSTITUT PASTEUR, published 2015)
Blank lines part the entries; values can stand above or below the molecule they belong to.

Legend:
[1] = molecular target: human FcγRI receptor (immobilized for SPR; form not stated) (human) (UniProt P12314); experiment: SPR on immobilized hFcγRI (summary sentence; the table prints 41)
[2] = molecular target: human FcγRI receptor (immobilized for SPR; form not stated) (human) (UniProt P12314); experiment: SPR, IgG injected onto immobilized hFcγRI
[3] = molecular target: human FcγRI receptor (immobilized for SPR; form not stated) (human) (UniProt P12314); experiment: SPR, IgG injected onto immobilized hFcγRI; remark: listed apart in the source
[4] = molecular target: T1, human FcγRI receptor (immobilized for SPR; form not stated) (human, UniProt P12314 16-288, limits assumed); experiment: method not stated
T1 construct: also called hFcγRI; immobilized hFcγRI
T1 sequence (P12314 16-288 limits assumed): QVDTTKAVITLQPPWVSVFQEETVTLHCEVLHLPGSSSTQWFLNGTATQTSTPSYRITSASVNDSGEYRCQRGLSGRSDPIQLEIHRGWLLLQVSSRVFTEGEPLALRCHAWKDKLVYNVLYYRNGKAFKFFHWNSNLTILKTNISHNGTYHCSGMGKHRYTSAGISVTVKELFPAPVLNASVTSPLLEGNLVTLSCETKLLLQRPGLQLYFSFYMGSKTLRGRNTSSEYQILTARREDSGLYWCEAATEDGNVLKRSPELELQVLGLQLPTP

Sequence of human FcγRI receptor (immobilized for SPR; form not stated) (human) (P12314 16-288 limits assumed): as above

- Kd [1]: 40 nM
- Ka [2]: 2.5e+07 M⁻¹
- Kd [2]: 40 nM
- Half life [3]: 3.6 min
- Kd [3]: 41 nM
- koff [3]: 0.0014 s⁻¹
- kon [3]: 35000 M⁻¹ s⁻¹
Molecule: human IgG1 (antibody)

- Ka [2]: 2.5e+07 M⁻¹
- Kd [2]: 40 nM
- Half life [3]: 4.52 min
- Kd [3]: 38 nM
- koff [3]: 0.0011 s⁻¹
- kon [3]: 36000 M⁻¹ s⁻¹
Molecule: mouse IgG2a (antibody)

- Ka [4]: 1.5e+09 M⁻¹
B1: anti-hFcγRI.1 monoclonal antibody (antibody, mouse IgG2a, V domains shown)
VH: EVQLQESGPGLVQPSQSLSITCTVSGFSLTTYGVHWVRQSPGKGLEWLGMIWSGGSTDYNAAFISRLSISKDNSKSQVFFKMNSLQADDTAIYYCAREWFAYWGQGTSVTVSS
VL: ELVMTQSPASLSASVGETVTITCRASENIYSYLAWYQQKQGKSPQLLVYSAKTLAEGVPSRFSGSGSGTQFSLKINSLQPEDFGSYYCQHHYGTPYTFGGGTKMEIK
notes: Mouse IgG2a; IgG purified by Protein G from hybridoma supernatant; also called anti-hFcγR1.1; hFcγRI.1 mAb
